The source of these data is patent publication US11638741B2, “Composition for treating cancer or inhibiting cancer metastasis, including TFG or TFMG nanoparticles” (KYUNGPOOK NATIONAL UNIVERSITY INDUSTRY-ACADEMIC COOPERATION …, priority 2019, dated 2023).

Assay [1] has as its system Lewis lung carcinoma (LLC). Nature of the assay: Enhancement of cisplatin treatment effects in LLC allograft model (tumor size, survival). The format is in vivo, C57BL/6J mice. The settings on record: for inhibiting the growth of the tumor: nanoparticles 100 nM (days 7, 10, 13) administered together with cisplatin 3 mg/kg (days 7, 12), on day 13. On the procedure: In order to confirm whether the treatment effects of a conventionally used anticancer agent may be enhanced by normalizing abnormal blood vessels in a tumor, 100 nM of the TFG nanoparticles or TFMG nanoparticles was injected into the tail vein in a tumor animal model prepared in the same manner as in Example 2.1 on days 7, 10, and 13, cisplatin was injected at a concentration of 3 mg/kg on days 7 and 12, and the survival proportion was measured. An equal amount of phosphate buffered saline was injected into a negative control (Con), and an equal amount of cisplatin was injected alone into a positive control (Cis). Then, the tumor size was confirmed by obtaining tumors on days 9, 11, and 13. The results are illustrated in FIGS. 8 and 9.

In assay [2] the test system is blood vessels in a tumor (Lewis lung carcinoma (LLC)). Nature of the assay: Structure and function of blood vessels in LLC tumor (IHC, pimonidazole hypoxia staining). The format is in vivo, C57BL/6J mice. As to conditions: FIG. 7. On the procedure:
The structure and function of blood vessels in a tumor were analyzed using the tumor obtained in the same manner as in Example 2.1. More specifically, the obtained tumor was observed using a confocal microscope after fluorescent staining was performed through IHC analyses in the same manner as in Example 2.2. In order to measure the hypoxic state inside the tumor, 60 mg/kg of Hypoxyprobe-1™ (pimonidazole hydrochloride; PIMO, HPI) was administered through intraperitoneal injection, and 90 minutes later, the mouse was sacrificed and the tumor extracted. The extracted tumor was incised, and then stained with mouse anti-hypoxyprobe antibody (HPI), Alexa Fluor 488-, 568-, or 647-conjugated anti-mouse IgG (Invitrogen), and in order to measure the degree of leakage of blood vessels in the tumor, 40 mg/kg of Hoechst33258 (Invitrogen) was intravenously injected 5 minutes before the mouse was sacrificed. The prepared sample was obtained using a confocal microscope. The results are illustrated in FIGS. 6 and 7.

The test system of assay [3] is naturally occurring tumor model (MMTV-PyMT gene transplanted mice). Nature of the assay: Inhibition of tumor proliferation in naturally occurring tumor model. The format is in vivo. The settings on record: 100 nM into tail veins of 12-week-old mice; tumors obtained at 15 weeks. As for the experimental part:
More specifically, the sizes of all the distinct nodules of 12-week-old mice were measured, and the mice were grouped according to the sizes of the tumors. Then, 100 nM of the TFG nanoparticles or TFMG nanoparticles was injected into their tail veins, and the tumors were obtained when the mice became 15 weeks old. Then, the sizes of the tumors were measured in the same manner as in Example 2.1. The results are illustrated in FIG. 11.

Assay [4] concerns Lewis lung carcinoma (LLC). Put plainly: Inhibition of tumor proliferation and survival in LLC allograft tumor animal model. As to conditions: 100 nM into the tail vein on days 7, 10, 13; for survival proportion: FIG. 3; for tumor growth inhibition effect: compared with the control, tumor obtained on day 14. Format: in vivo, C57BL/6J mice. On the procedure:
In order to confirm the effects of the TFG nanoparticles or TFMG nanoparticles on the proliferation of cancer cells, after a tumor animal model was prepared by allografting 2 to 5×10^5 cells of Lewis lung carcinoma (LLC) as a murine lung cancer cell line into 6- to 7-week-old C57BL/6J mice, 100 nM of the TFG nanoparticles or TFMG nanoparticles was injected into the tail vein on days 7, 10, and 13, and then the size and survival proportion of the tumor were observed by obtaining the tumor on day 14. The tumor size was measured by substitution into the formula “0.5×A×B^2 (A: diameter in the longest direction, and B: diameter in a direction vertical to the longest direction).” An equal amount of phosphate buffered saline was administered to a control (Con). Animal care and all experimental procedures were performed in accordance with the laws and regulations for animal experiments. In order to show a significant difference between the corresponding groups in at least 3 of all the experimental result values, an ANOVA verification was performed, and only values with statistical significance of P-values <0.05 were shown as the average value±standard deviations (SD). The results are illustrated in FIGS. 1 to 3.

Assay [5] relates to naturally occurring tumor model (MMTV-PyMT gene transplanted mice). Put plainly: Inhibition of tumor metastasis in naturally occurring tumor model. The format is in vivo. As to conditions: compared to the control; 100 nM into tail veins at 12 weeks, confirmed at 15 weeks. The text has this: The results are illustrated in FIG. 12.
Assay [6] relates to Lewis lung carcinoma (LLC). Put plainly: Inhibition of tumor metastasis into lungs and inguinal lymph nodes, LLC allograft model after tumor removal surgery. The format is in vivo, C57BL/6J mice. As to conditions: compared with the control; for lymph node metastasis inhibition rate: inguinal lymph nodes, IHC, day 28; for metastasis of the tumor into the lungs inhibited: tumor removal surgery day 14, metastasis confirmed day 28. On the procedure: In order to confirm whether the TFG nanoparticles or TFMG nanoparticles affected the inhibition of metastasis of tumor, a tumor animal model was prepared in the same manner as in Example 2.1, and then the TFG nanoparticles or TFMG nanoparticles were injected. Then, a tumor removal surgery was performed on day 14, and it was confirmed whether the tumor metastasized into the lungs and the inguinal lymph nodes (LNs) on day 28. The metastasis into the inguinal lymph nodes was confirmed using immunohistochemistry (IHC) analyses. More specifically, the lymph nodes obtained to confirm cytokeratin positive tumor cells were fixed with 3.7% paraformaldehyde (PFA), and then dehydrated by treatment with a 10 to 40% sucrose solution at each step. Then, after the permeability of cells was increased by treatment with 0.3% Triton X-100 and a blocking process was performed using a bovine serum albumin (BSA), the lymph nodes were treated with rat anti-CD31 (BD Biosciences), mouse anti-α-SMA (Abcam), mouse anti-pimonidazole (HPI), mouse anti-cytokeratin II (Millipore), or rabbit anti-LYVE-1 (Angiobio) antibodies, and reacted at 4° C. for 16 hours. Then, unbound antibodies were washed using phosphate buffered saline, and then treated with Alexa Fluor 488-, 568-, or 647-conjugated anti-mouse IgG (Invitrogen), Alexa Fluor 594- or 647-conjugated anti-rat IgG (Invitrogen), Alexa Fluor 488-, 568-, or 647-conjugated anti-rabbit IgG (Invitrogen) antibodies that were secondary antibodies to a fluorescent marker, and reacted at room temperature for 1 hour. Then, finally, cellular nuclei were stained by treatment with Hoechst33258 (Invitrogen) for 1 minute, and then observed using a confocal microscope, and a fluorescence value was quantified using ImageJ. In order to show a significant difference between the corresponding groups in at least 3 of all the experimental result values, an ANOVA verification was performed, and only values with statistical significance of P-values <0.05 were shown as the average value±standard deviations (SD). The results are illustrated in FIGS. 4 to 5.

In the case of `N.N.[Cl][Pt][Cl]` [cisplatin, reference compound], the “growth of the tumor inhibited” value in assay [1] (cisplatin administered alone, 3 mg/kg on days 7 and 12 (positive control)) is on record as 62.6%.

B1: TFMG nanoparticles: a TRAP-ferritin monomer fragment-linker-PC-Gla fusion polypeptide; a polypeptide represented by SEQ ID NO: 2 (protein)
chain: MGGTTFLLRNASGHMSSQIRQNYSTDVEAAVNSLVNLYLQASYTYLSLGFYFDRDDVALEGVSHFFRELAEEKREGYERLLKMQNQRGGRIFLQDIKKPAEDEWGKTPDAMKAAMALEKKLNQALLDLHALGSARTDPHLCDFLETHFLDEEVKLIKKMGDHLTNLHRLGGGSEFVDGGGSGTSGPLGLAGANSFLEELRHSSLERECIEEICDFEEAKEIFQNVDDTLAFWSKHVLEHHHHHH
modifications: nanoparticle assembly; TFMG nanoparticle
Consider B1, for which, in assay [2], the “blood vessels covered with α-smooth muscle actin positive pericytes” value is “increased”. In addition, in assay [3], the “number of nodules with tumors decreased” value turned out to be 59% and the “sizes of the tumors decreased” value amounted to 87.2%. Moreover, in assay [4], the survival proportion entry is listed as “increased” and the “tumor growth inhibition effect” value was 27.0%. In addition, in assay [1], the “inhibiting the growth of the tumor” value came out at 94.3%. Also, the metastasis inhibition rate in assay [5] is recorded as 93.6%. In assay [6], the “lymph node metastasis inhibition rate” value came out at 78.1% and the “metastasis of the tumor into the lungs inhibited” value is reported as 86.4%.

B2: TFG nanoparticles: a TRAP-ferritin monomer fragment-PC-Gla fusion polypeptide; a polypeptide represented by SEQ ID NO: 1 (protein)
chain: MGGTTFLLRNASGHMSSQIRQNYSTDVEAAVNSLVNLYLQASYTYLSLGFYFDRDDVALEGVSHFFRELAEEKREGYERLLKMQNQRGGRIFLQDIKKPAEDEWGKTPDAMKAAMALEKKLNQALLDLHALGSARTDPHLCDFLETHFLDEEVKLIKKMGDHLTNLHRLGGGSEFVDGGGSGTSANSFLEELRHSSLERECIEEICDFEEAKEIFQNVDDTLAFWSKHVLEHHHHHH
modifications: nanoparticle assembly; TFG nanoparticle
On to B2, for which the “blood vessels covered with α-smooth muscle actin positive pericytes” value in assay [2] is reported as “increased”. Moreover, in assay [3], the “number of nodules with tumors decreased” value is 39.1% and the “sizes of the tumors decreased” value was found to be 85%. Further, in assay [4], the survival proportion entry is listed as “increased” and the “tumor growth inhibition effect” value turned out to be 28.2%. In assay [1], the “inhibiting the growth of the tumor” value turned out to be 96.2%. In assay [5], this molecule registered a metastasis inhibition rate of 93.6%. In assay [6], the “lymph node metastasis inhibition rate” value is reported as 76.9% and the “metastasis of the tumor into the lungs inhibited” value turned out to be 83.4%.
